The data set is described as follows: yeast display, Sf9 membrane polyspecificity reagent, FACS + sequencing; frameworks hold sequencing errors. The method in brief:
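In a synthetic yeast display library (Saccharomyces cerevisiae BJ5465), nanobody expression was induced with galactose for 36–48 hours. FACS gates were set low and high (top ~1%) using anti-HA fluorescence for expression and streptavidin fluorescence for binding of the Sf9 membrane reagent. Each polyreactivity label is drawn from the gate of origin.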
Take “QVQLVESGGGLVQAGGSLRLSCAASGFTFYLYGMGWYRPAPGKERELVAGIDSDGRTNYADSVKGRFTISRDNAMNTVYLQMNSLKPEDTAVYYCAVEWAGGYDYYYWGQGSQVTVSS”: the “polyreactivity (PSR sort gate)” value is “high polyreactivity”. The entry for “QVQLVESGGGLVQAGGSLRLSCAASGITFVGYAMGWYRQAPGKERELVAVINTSSSTYYADSVKGRFTISRDNAKNTVYLQMNSLKPVDTAVYYCADYAYYRYFIPAVLYDYWGQGTQVTVSS” is “low polyreactivity”; for “QVQLVESGGGLVQAGGSLRLSCAASGLIIWYYAMGWYRQAPGKERELVAAISRSGGRTYYADSVKGRFTISRDNAKNTVYLQMNSLKPEDTAVNYCNADVYRGYDYWGQGTQVTVSS” it is “high polyreactivity”; for “QVQLVESRGGLVQAGGSLRLSCAASGITSRLNAMVWYRQAPGKERELVAGISRGGGTTYYADSVKGRFTISRDNAKNTVYLQMNSLKTEDTAVYYCAAAYRVRGGTYDSWGQGTQVTVSS” it is “high polyreactivity”.

Take “QVQLVESGGGLVQAGGSLRFSCAASGSTIPPNAMGWYRQAPGKERELVAAINSTGSTNYADSVKGRFTISRDNAKNTVSLQMNSLQPEDTAVYYCAAEGLPYVRVFDFVSRYDYWGQGTQVTVSS”: the “polyreactivity (PSR sort gate)” value is given as “low polyreactivity”.

Take “QVQLVESGGGLVQAGGSLRLSCAASGRTFVLNAMGWYRPAPGKERELVAAITLGGGSTYADSVKGRFTISRDNAKNTVYLQMNSLKPEDTAVYYCAADFHYPAFEYWGQGTQVTVSS”: the “polyreactivity (PSR sort gate)” value was “low polyreactivity”.

Take “QVQLVESGGGLVQAGGSLRLSCAASGRTFQRYAMGWYRQAPGKERELVAAITSRGGSTYYADSVKGRFTISRDNAKNTVYLQMNSLKPEDTAVYYCNARSRRTHSEPQSEMDYWGQGTQVTVSS”: the “polyreactivity (PSR sort gate)” value is recorded as “high polyreactivity”. Next, “QVQLVESGGGLVQAGGSLRLSCAASGFTFDYYTMGWYRQAPGKEREFVAAITWNGGSTYYADSVKGRFTISRYNAKNTVYLQMNSLKPEDSAVYYCAADTTYGINRREYWGQGTQVTVSS”: “low polyreactivity”; “QVQLVESGGGLVQAGGSLRLICAASGSTSQNKAMGWYRPAPGKERELVAAITWSGDSTYYADSVKGRFTISRDNAKNTVYIQMNSLKPEDSAVYYCAAVSRFFSTYLYDYWGEGTQVTVSS”: “low polyreactivity”; “QVQLVESGGGLVQAGGSLRLSCAASGIIFTWYAMGWYRQAPGKERELVAAISGSGDITYYADSVKGRFTSSRDNAKNTVYLQMNSLKPEDTAVYYCAADPWTYWEDYDYWGQGTQVTVSS”: “low polyreactivity”.

“QVQLVESAGGLVQAGGSLRLSCAASGRIFRANAMGWYRQAPGKERELVATIRNSGGITYYADSVKGRFTISRDHAKNTVYLQMNSLIPEDTAVYYCAKLGRYGYDYWGQGTQVTVSS”: the “polyreactivity (PSR sort gate)” value is recorded as “high polyreactivity”. Regarding “QVQLVESGGGLVQAGGSLRLSCAASGRTFQLNAMGWYRQAPGKEREVVAAISTRGGSTYYADSVKGRFTISRDNAKNTVYLQMHRLKPEDTAVYYCAKDPSFTRGYKEGGGYDYWGQGTQVTVSS”, the “polyreactivity (PSR sort gate)” value is recorded as “high polyreactivity”. Next, “QVQLVETGGGLVQAGGSLRLSCAASGITFGRNTMGWYRQAPGKERELVAAIDSGANTYADSVKGRFTISRDNAKNTVYLQMNSLKPEDTAVYYCAVDGGEFSSYGYWGQATQVTVSS”: “low polyreactivity”.

As for “QVQLVESGGGLVQEGGSLRLSCAASGSTFGVYSMGWYRQAPGKERELVAAISYTGGSTYYADSVKGRFTISRDNAKNSVYLQMNSLKPEDTGVFYCAVEVGYTDSPYSYDYWGEGTQVTVSS”, the “polyreactivity (PSR sort gate)” value is given as “low polyreactivity”. The entry for “QVQLVESGGGLVQAGGSLRLSCAASGRTFRSDNAMGWYRQAPGKERELVAAISQGGGTYYADSVKGRFTISRDNAKNTVYLQMNSLKPEDTAVSYCARDAYYADPSLWYYTYDYWGQCTQVTVSS” is “low polyreactivity”; for “QVQLVESGGGLVQAGGSLRLSCAASGRIFTGYAMGWYRQAPGKERELVAAISRGGSTNYADSVKGRFTISRDNAMNTVYLQMNSLKAEDTSVYYCACGVHWDRGDYWGQGAQVTVSS” it is “low polyreactivity”. The entry for “QVQLVESGGGLLQAGGSLRLSCAASGSIFSRYAMGWYRQAPGKERELVAAISKSGTRTYYADSVKGRFTISRDNAKNTVYLQMNSLKPEDTAVYYCNADSEISWYYPYEYWGQGTQVTVSS” is “high polyreactivity”; for “QVQLVESGGGLVQAGGSLRLSCAASGFIIYGYVMGWYRQAPGKERELVAAINSSSGRTYYADSVKGRFTISRDNAKNTVYLQMNSLKPEDTAVYYCAAYYYGSYDGTPYDYWGQGTQVTVSS” it is “low polyreactivity”.

For “QVQLVESGGGLVQAGGSLRLSCAASGRIFRPYAMGWYRQAPGKERELVAAITQSGGITSYADSVKGRFTISRDNAKNSVYLQMNSLKPEDTAVYYCATTSRYTRSHYDWYDYWGQGTQVTVSS”, the “polyreactivity (PSR sort gate)” value is reported as “low polyreactivity”.

As for “QVQLVESGGGLVQAGGSLRLSCAASGRTFTGYVMGWYRQAPGKDRELVAGSSRRGGRTYYADSVKGRYTISRDNAKNTVYLQMNSLKPEDTEVYYCAAAVTSSDPYDYWGQGTQVTVSS”, the “polyreactivity (PSR sort gate)” value was “high polyreactivity”. Next, “QVQLVESGGGLVQAGGTLRLSCAASGSIFWSYAMGWYRQAPGKEREFVASITGSGGTTTYADSVKGRFTISRDNAKNTVYLQMISLKPEDTAVYYCNARLHGWYHVYYIYDYWGQGTQVTVSS”: “low polyreactivity”; “QVQLVESGGGLVQAGGSLRLSCAASGFTFPTYAMGWYRQAPGKERELVAAISTSGARTYYADSVKGRFTISRDNAKNTVYLQMNSLKPEDTAVYYCAVGSIYTIGFRKGYRFDYWGQGTQVTVSS”: “high polyreactivity”. Next, “QVQLVESGGGLVQAGGSLRLSCAASGRIFGYYAMGWYIQAHGKERELVAAINSGSRTYYADSVKGRFTISRDNAKNTVYLQMNSLKPEDTAVYYCAARVRYPPYRSSDGQRGGYWGQGTQVTVSS”: “high polyreactivity”; “QVQLVESGGGLVQAGGSLRLSCDASGIIFAWYAMGWSRQAPGKERELVAAISSDGITKDADSVKGRFTISRDNAKNTVYLQMNSLKPEDTAVYYCAAGLGWGLYWIDSYEYWGQGTQVTVSS”: “low polyreactivity”; “QVQLVESGGGLVQAGGSLRLSCAASGSICGRYAMGWYRQAPGKDRELVAAIRWRSGSTYYADSVKGRFTISRDNAKNSVYLHMNSLKPEDTAVYYCAVQRSYVGPRQYNYWGQGTQVTVSS”: “high polyreactivity”. Turning to “QVQLLESWGGLVQAGGSLRLSCAASGRTSTRNAMGWSRQAPGKERELVAAISWSGGRTHYADSVKWRFTISRDNAMNYVYYQMNSLKQEATAVYYCAAAYTGGQYYYSWGQGTQVSVSS”, the “polyreactivity (PSR sort gate)” value is “high polyreactivity”. The entry for “QVQLVESGGGLVQAGGSLRLSCAASGRIFYVNAMAWYRQAPGTEREFVAAIRVDGASTYYADSVKGRFTFSRDNAKNTVYLQMNSLKPEDTAVYYCAARTRSYWSTTYYYWGQGTEVTVSS” is “high polyreactivity”. In the case of “QVQLVESVGGLVQAGGSLRLSCAASGFIFGSNAIGWYRQAPGKERELVAAITYSGASTYYADSVKGRFTISRDNAKNTVYLQMNRLKPEDTAVYYCATRYSVFVSGRFNYWGQGTQVTVSS”, the “polyreactivity (PSR sort gate)” value is given as “low polyreactivity”. The entry for “QVQLVESGGGLVQAGGSLRLSCAASVIIYHYYAMGWYRPAPGKERELVAAIDSGGSTYYADSVKGRFTISRDNAKNTVYLQMNSLKPEDTADYYCNAGPSVTSGYDYDYWGHGTQVTVSS” is “low polyreactivity”; for “QVHIVESGGGLVQAGGSLRLSCAASGINFGRNVMGWYRQPPGKERELVAAISWSGGRTYYADSVKGRFTISRDNAKNTVYFQIKSLITEDTAVYDCNARTGYYTGQYDYWGQGSQVTVSS” it is “high polyreactivity”.

The record behind these values is the nanobody polyreactivity screen of Harvey et al. (2022).
